According to patent US9370316B2, “MRI estimation of contrast agent concentration using a neural network approach” (HENRY FORD HEALTH SYSTEM, priority 2007, dated 2016):

Assay: MRI (TOMROP) after injection of Gd-BSA in 9 L rat model of cerebral gliosarcoma
Format: in vivo, Fisher 344 rats
Conditions: rats with 9 L cerebral tumor
Description: Given a “gold-standard” map of CA concentration, an ANN is trainable to directly estimate CA concentration from MRI image sets in which the time-varying behavior of the images depends, albeit nonlinearly, on CA concentration. Some of our studies using TOMROP (“T One by Multiple Read Out Pulses”) image sets as inputs in a set of tubular gel phantoms are supportive. In accordance with some embodiments, without limitation, an ANN for estimating CA concentration in the brain tissue of 9 male Fisher rats, using as inputs TOMROP signal changes after injection of Gd-BSA in a 9 L rat model of cerebral gliosarcoma (Ewing et al. 2006), was designed, trained, optimized, and tested. The MRI experiment was followed by quantitative autoradiography (“QAR”) using radioiodinated serum albumin (“RISA”), thus essentially replicating the MRI as to its timing, procedures, and indicator. The autoradiogram of the QAR procedure served as the training set.
Animal Studies: As part of our studies to compare MRI estimates of transfer constant to QAR estimates (results not included here), nine animals (Fisher 344 rats) with 9 L tumor (Ewing et al. 2006) were studied. Mean tumor age was 14.6±0.7 days (range 14 to 16 days) for all animals. […]

## Gadolinium-labeled Bovine Serum Albumin [Gd-BSA]
  Extravasation of Gd-BSA: occurred within the tumors and at tumor borders in all animals
